For experiment [1], the target named is T1, FLAG-GFP-tagged mouse Wnt3a (mouse, UniProt P27467 19-352).
T1 construct: Wnt3a, mouse; secreted into the culture supernatant; Ends of the tags are read from the order of the printed name; also called GFP-Wnt3a; FLAG-GFP-Wnt3a; source: L cells stably expressing it, secreted into the culture supernatant (not purified); not shown: GFP, N-terminal, kept
The experiment in a line: AUC; AUC-FDS (fluorescence detection) of the culture supernatant of fluorescent Wnt-expressing cells co-cultured with sFRP-expressing or parental HEK293 cells; FluoroBrite DMEM with 8% FBS, no detergent; 20 °C, 42,000 rpm; c(s) model of SEDFIT. The settings on record: partners not purified.

Another experiment has as its target T2, FLAG-mClover-mouse Wnt5a (mouse, UniProt P22725 62-380).
T2 construct: Wnt5a, mouse; secreted into the culture supernatant; Ends of the tags are read from the order of the printed name; also called mClover-Wnt5a; mClover-tagged Wnt5a; source: HEK293 cells stably expressing it (CMV promoter), secreted into the culture supernatant (not purified); not shown: mClover, N-terminal, kept
T2 sequence (looked up): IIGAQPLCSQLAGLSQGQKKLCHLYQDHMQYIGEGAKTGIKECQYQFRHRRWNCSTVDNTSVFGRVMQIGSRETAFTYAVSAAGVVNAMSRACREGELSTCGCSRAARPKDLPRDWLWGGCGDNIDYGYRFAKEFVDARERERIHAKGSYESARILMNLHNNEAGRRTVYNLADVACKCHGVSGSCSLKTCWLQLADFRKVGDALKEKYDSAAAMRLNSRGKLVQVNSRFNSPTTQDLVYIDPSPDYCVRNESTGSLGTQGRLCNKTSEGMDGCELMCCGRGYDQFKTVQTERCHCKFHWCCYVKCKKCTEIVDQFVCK
The description is as above. The conditions noted are these: partners not purified.

T1 sequence (P27467 19-352): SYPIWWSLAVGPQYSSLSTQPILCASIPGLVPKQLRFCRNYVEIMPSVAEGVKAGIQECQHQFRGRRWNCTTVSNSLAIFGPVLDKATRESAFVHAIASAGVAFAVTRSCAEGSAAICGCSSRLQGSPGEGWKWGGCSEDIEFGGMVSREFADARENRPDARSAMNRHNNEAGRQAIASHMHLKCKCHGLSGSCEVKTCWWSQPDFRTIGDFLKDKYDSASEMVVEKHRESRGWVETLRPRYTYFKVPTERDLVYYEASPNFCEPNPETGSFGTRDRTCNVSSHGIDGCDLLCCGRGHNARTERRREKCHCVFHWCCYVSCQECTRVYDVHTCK

B1: mouse sFRP2-FLAG (natural protein, UniProt P97299 25-295, looked up)
chain: LFLFGQPDFSYKRSNCKPIPANLQLCHGIEYQNMRLPNLLGHETMKEVLEQAGAWIPLVMKQCHPDTKKFLCSLFAPVCLDDLDETIQPCHSLCVQVKDRCAPVMSAFGFPWPDMLECDRFPQDNDLCIPLASSDHLLPATEEAPKVCEACKTKNEDDNDIMETLCKNDFALKIKVKEITYINRDTKIILETKSKTIYKLNGVSERDLKKSVLWLKDSLQCTCEEMNDINAPYLVMGQKQGGELVITSVKRWQKGQREFKRISRSIRKLQC
notes: sFRP2 (secreted Frizzled-related protein 2), mouse; secreted into the culture supernatant; End of the tag is read from the order of the printed name; also called secreted Frizzled-related protein 2; source: HEK293 cells stably expressing it, secreted into the culture supernatant (not purified)
B1: the “stoichiometry N” value (in experiment [1]; in the experiment with FLAG-mClover-mouse Wnt5a) was 1 throughout.

The values are drawn from publication PMC10907715, “Soluble Frizzled-related proteins promote exosome-mediated Wnt re-secretion” (Communications Biology, 2024).
